Source: article PMC12379375

Biological target: recombinant CgDM9CP-6 (DM9 domain containing protein 6 of Crassostrea gigas), His tag (Crassostrea gigas)
Assay: BLI

“recombinant Cg14-3-3ε (14-3-3 epsilon of Crassostrea gigas), GST tag (natural protein)” gave a Kd of 3.81 µM.
